Article PMC9426472, “Blockade of the Adenylate Cyclase Toxin Synergizes with Opsonizing Antibodies to Protect Mice against Bordetella pertussis” (mBio, 2022)

Experiments:
[1] = target: integrin αMβ2 (Homo sapiens) (UniProt P11215); assay: SPR; details: cited from earlier work
[2] = target: T1, soluble, purified mouse αMβ2 integrin (ectodomain heterodimer) (mouse, UniProt P05555 17-1105; P11835 24-701); assay: SPR; Biacore X100; M1F5 Fab amine-coupled to both flow cells of a CM5 chip (~2,500 RU); ~10 RU RTX (10 nM) captured on flow cell 2 in each cycle; mouse αMβ2 at 6.13 to 200 nM flowed for 180 s, dissociation 600 s; 10 mM HEPES pH 7.4, 150 mM NaCl, 1 mM CaCl2, 1 mM MgCl2, 0.05% Tween 20; global 1:1 binding model; details: both partners purified
T1 construct: also called CR3; MAC-1
T1 sequence (P05555 other isoform, or with tags, fused parts or gaps, chain 1 of 2): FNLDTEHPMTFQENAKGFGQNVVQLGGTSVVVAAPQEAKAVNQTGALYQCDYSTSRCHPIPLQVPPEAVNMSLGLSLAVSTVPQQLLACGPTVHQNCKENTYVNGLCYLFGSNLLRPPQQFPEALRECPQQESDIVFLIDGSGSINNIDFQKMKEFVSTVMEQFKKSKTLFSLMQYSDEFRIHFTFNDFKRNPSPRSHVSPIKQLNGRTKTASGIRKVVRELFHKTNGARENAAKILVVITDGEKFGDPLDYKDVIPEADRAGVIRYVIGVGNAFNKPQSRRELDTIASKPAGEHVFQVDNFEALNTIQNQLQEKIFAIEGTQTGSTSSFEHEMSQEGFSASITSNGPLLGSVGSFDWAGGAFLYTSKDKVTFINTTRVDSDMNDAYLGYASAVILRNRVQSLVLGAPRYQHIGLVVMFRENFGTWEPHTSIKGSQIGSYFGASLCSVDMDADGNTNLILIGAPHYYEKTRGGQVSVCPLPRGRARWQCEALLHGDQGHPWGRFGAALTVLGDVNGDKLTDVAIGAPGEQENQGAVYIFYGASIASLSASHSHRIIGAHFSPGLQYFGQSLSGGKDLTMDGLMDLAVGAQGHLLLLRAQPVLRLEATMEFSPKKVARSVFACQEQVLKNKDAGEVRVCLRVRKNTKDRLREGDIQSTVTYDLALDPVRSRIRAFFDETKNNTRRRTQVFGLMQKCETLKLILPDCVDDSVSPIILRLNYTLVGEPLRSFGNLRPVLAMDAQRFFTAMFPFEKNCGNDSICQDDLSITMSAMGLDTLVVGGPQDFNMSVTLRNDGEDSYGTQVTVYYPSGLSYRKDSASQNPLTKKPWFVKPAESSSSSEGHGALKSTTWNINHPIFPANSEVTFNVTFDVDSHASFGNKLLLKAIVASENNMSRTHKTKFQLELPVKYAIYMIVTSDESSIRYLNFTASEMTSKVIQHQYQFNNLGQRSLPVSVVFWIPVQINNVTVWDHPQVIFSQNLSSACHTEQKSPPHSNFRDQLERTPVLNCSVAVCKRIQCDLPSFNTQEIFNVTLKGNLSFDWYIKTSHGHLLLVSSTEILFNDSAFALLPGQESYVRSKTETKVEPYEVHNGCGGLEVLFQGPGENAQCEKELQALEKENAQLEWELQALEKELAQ
T1 sequence (P11835 other isoform, or with tags, fused parts or gaps, chain 2 of 2): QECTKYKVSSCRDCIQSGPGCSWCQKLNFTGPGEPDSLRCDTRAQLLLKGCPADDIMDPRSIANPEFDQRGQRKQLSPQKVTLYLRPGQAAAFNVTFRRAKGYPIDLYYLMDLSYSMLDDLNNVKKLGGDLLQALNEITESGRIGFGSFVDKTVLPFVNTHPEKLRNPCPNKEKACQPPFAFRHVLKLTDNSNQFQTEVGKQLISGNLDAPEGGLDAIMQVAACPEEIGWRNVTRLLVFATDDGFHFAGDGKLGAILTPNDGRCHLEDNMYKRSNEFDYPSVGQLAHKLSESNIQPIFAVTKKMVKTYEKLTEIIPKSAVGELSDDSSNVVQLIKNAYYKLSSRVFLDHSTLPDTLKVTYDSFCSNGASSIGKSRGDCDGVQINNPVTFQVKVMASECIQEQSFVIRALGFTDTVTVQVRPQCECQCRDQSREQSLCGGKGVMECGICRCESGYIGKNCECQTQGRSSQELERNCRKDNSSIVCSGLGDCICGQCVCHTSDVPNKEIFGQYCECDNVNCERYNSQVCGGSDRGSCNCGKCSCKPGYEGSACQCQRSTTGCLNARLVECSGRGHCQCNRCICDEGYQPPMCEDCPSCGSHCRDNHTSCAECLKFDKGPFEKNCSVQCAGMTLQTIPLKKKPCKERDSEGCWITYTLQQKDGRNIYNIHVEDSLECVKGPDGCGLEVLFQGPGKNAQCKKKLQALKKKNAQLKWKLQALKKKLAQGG

Row | Molecule | Kd [1] | Kd [2] | koff [2] | kon [2]
1 | adenylate cyclase toxin RTX751 (from UniProt P0DKX7) | 57 nM | – | – | –
2 | RTX751 (RTX domain of the Bordetella pertussis adenylate cyclase toxin, residues 751 to 1706) (domain or fragment, Cloned into the NheI and BamHI sites of pET28a+; The vector may add N-terminal residues (His tag, thrombin site) before the Strep tag; also called recombinant RTX751) ANSDGLRKMLADLQAGWNASSVIGVQTTEISKSALELAAITGNADNLKSVDVFVDRFVQGERVAGQPVVLDVAAGGIDIASRKGERPALTFITPLAAPGEEQRRRTKTGKSEFTTFVEIVGKQDRWRIRDGAADTTIDLAKVVSQLVDANGVLKHSIKLDVIGGDGDDVVLANASRIHYDGGAGTNTVSYAALGRQDSITVSADGERFNVRKQLNNANVYREGVATQTTAYGKRTENVQYRHVELARVGQLVEVDTLEHVQHIIGGAGNDSITGNAHDNFLAGGSGDDRLDGGAGNDTLVGGEGQNTVIGGAGDDVFLQDLGVWSNQLDGGAGVDTVKYNVHQPSEERLERMGDTGIHADLQKGTVEKWPALNLFSVDHVKNIENLHGSRLNDRIAGDDQDNELWGHDGNDTIRGRGGDDILRGGLGLDTLYGEDGNDIFLQDDETVSDDIDGGAGLDTVDYSAMIHPGRIVAPHEYGFGIEADLSREWVRKASALGVDYYDNVRNVENVIGTSMKDVLIGDAQANTLMGQGGDDTVRGGDGDDLLFGGDGNDMLYGDAGNDTLYGGLGDDTLEGGAGNDWFGQTQAREHDVLRGGDGVDTVDYSQTGAHAGIAAGRIGLGILADLGAGRVDKLGEAGSSAYDTVSGIENVVGTELADRITGDAQANVLRGAGGADVLAGGEGDDVLLGGDGDDQLSGDAGRDRLYGEAGDDWFFQDAANAGNLLDGGDGRDTVDFSGPGRGLDAGAKGVFLSLGKGFASLMDEPETSNVLRNIENAVGSARDDVLIGDAGANVLNGLAGNDVLSGGAGDDVLLGDEGSDLLSGDAGNDDLFGGQGDDTYLFGVGYGHDTIYESGGGHDTIRINAGADQLWFARQGNDLEIRILGTDDALTVHDWYRDADHRVEIIHAANQAVDQAGIEKLVEAMAQYPDPGAAAAAPPAARVPDTLMQSLAVNWR | – | 52 nM | 0.0028 s⁻¹ | 55000 M⁻¹ s⁻¹
